Data reported in patent US20110008774A1.

Biological target: β-galactosidase (β-gal, Sigma) (E. coli) [β-galactosidase: P00722]
Assay: panning of mixtures with wt scFv13-SecM17 ARM complexes in 10:1, 100:1, 1,000:1 or 10,000:1 excess on immobilized β-gal; 10 clones sequenced per mixture

β-galactosidase (β-gal, Sigma) (E. coli) [β-galactosidase: P00722], sequence (P00722 2-1024 limits assumed): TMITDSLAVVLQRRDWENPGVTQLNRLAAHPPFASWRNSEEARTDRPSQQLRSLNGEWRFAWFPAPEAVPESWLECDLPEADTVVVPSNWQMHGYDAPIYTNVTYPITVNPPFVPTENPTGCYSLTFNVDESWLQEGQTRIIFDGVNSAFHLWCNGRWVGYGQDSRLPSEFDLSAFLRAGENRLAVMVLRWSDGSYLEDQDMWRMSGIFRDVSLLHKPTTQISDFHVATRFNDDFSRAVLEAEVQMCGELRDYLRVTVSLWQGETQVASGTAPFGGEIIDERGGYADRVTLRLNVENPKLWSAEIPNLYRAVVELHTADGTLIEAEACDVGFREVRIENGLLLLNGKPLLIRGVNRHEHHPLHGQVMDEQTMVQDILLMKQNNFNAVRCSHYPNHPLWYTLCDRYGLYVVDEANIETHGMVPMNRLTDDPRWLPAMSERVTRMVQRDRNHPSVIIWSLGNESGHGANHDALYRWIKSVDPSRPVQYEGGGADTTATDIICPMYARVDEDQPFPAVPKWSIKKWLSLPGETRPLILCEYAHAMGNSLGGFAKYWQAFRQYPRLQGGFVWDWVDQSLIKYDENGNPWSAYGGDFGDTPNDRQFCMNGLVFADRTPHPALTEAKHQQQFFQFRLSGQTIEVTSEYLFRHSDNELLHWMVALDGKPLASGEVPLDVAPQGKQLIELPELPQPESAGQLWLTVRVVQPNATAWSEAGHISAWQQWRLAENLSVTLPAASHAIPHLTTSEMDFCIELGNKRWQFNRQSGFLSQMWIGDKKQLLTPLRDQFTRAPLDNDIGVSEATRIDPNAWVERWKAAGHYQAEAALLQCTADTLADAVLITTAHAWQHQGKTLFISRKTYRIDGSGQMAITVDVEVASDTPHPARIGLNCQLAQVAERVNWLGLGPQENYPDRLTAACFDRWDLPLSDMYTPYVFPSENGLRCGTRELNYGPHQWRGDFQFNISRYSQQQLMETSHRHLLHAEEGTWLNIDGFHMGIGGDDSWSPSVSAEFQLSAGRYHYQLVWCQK

- share of sequenced clones recovered after panning: 100%
Substance: scFv13-R4-SecM17 fusion
